Results from US20150267232A1, “IN VIVO AND IN VITRO CARBENE INSERTION AND NITRENE TRANSFER REACTIONS CATALYZED BY HEME ENZYMES” (California Institute of Technology, priority 2012, published 2015).
Where a chain is given by its changes, count along the chain named. Names and notes keep the numbering of the source.

B1: 9-10A TS: V78A, P142S, T175I, A184V, S226R, H236Q, E252G, A290V, L353V, I366V, E442K (protein, listed as Bacillus megaterium)
chain: TIKEMPQPKTFGELKNLPLLNTDKPVQALMKIADELGEIFKFEAPGRVTRYLSSQRLIKEACDESRFDKNLSQALKFARDFAGDGLFTSWTHEKNWKKAHNILLPSFSQQAMKGYHAMMVDIAVQLVQKWERLNADEHIEVSEDMTRLTLDTIGLCGFNYRFNSFYRDQPHPFIISMVRALDEVMNKLQRANPDDPAYDENKRQFQEDIKVMNDLVDKIIADRKARGEQSDDLLTQMLNGKDPETGEPLDDGNIRYQIITFLIAGHETTSGLLSFALYFLVKNPHVLQKVAEEAARVLVDPVPSYKQVKQLKYVGMVLNEALRLWPTAPAFSLYAKEDTVLGGEYPLEKGDEVMVLIPQLHRDKTVWGDDVEEFRPERFENPSAIPQHAFKPFGNGQRACIGQQFALHEATLVLGMMLKHFDFEDHTNYELDIKETLTLKPKGFVVKAKSKKIPLGGIPSPSTEQSAKKVRKKAENAHNTPLLVLYGSNMGTAEGTARDLADIAMSKGFAPQVATLDSHAGNLPREGAVLIVTASYNGHPPDNAKQFVDWLDQASADEVKGVRYSVFGCGDKNWATTYQKVPAFIDETLAAKGAENIADRGEADASDDFEGTYEEWREHMWSDVAAYFNLDIENSEDNKSTLSLQFVDSAADMPLAKMHGAFSTNVVASKELQQPGSARSTRHLEIELPKEASYQEGDHLGVIPRNYEGIVNRVTARFGLDASQQIRLEAEEEKLAHLPLAKTVSVEELLQYVELQDPVTRTQLRAMAAKTVCPPHKVELEALLEKQAYKEQVLAKRLTMLELLEKYPACEMKFSEFIALLPSIRPRYYSISSSPRVDEKQASITVSVVSGEAWSGYGEYKGIASNYLAELQEGDTITCFISTPQSEFTLPKDPETPLIMVGPGTGVAPFRGFVQARKQLKEQGQSLGEAHLYFGCRSPHEDYLYQEELENAQSEGIITLHTAFSRMPNQPKTYVQHVMEQDGKKLIELLDQGAHFYICGDGSQMAPAVEATLMKSYADVHQVSEADARLWLQQLEEKGRYAKDVWAG
modifications: cytochrome P450NADPH-P-450 reductase precursor, cytochrome P450 (BM3), CYP102A1
notes: V78A, P142S, T175I, A184V, S226R, H236Q, E252G, A290V, L353V, I366V, E442K
B2: ABC-CIS-A268T: BM3-CIS + C400S + A268T (9-10A TS + F87V, C400S) (protein, listed as Bacillus megaterium)
chain: B1 chain with F87V, C400S
modifications: cytochrome P450NADPH-P-450 reductase precursor, cytochrome P450 (BM3), CYP102A1
B3: 9-10A TS F87A: 9-10A TS + F87A (protein, listed as Bacillus megaterium)
chain: B1 chain with F87A
modifications: cytochrome P450NADPH-P-450 reductase precursor, cytochrome P450 (BM3), CYP102A1
B4: WT F87A: P450BM3 variant: F87A (protein, listed as Bacillus megaterium)
chain: TIKEMPQPKTFGELKNLPLLNTDKPVQALMKIADELGEIFKFEAPGRVTRYLSSQRLIKEACDESRFDKNLSQALKFVRDFAGDGLATSWTHEKNWKKAHNILLPSFSQQAMKGYHAMMVDIAVQLVQKWERLNADEHIEVPEDMTRLTLDTIGLCGFNYRFNSFYRDQPHPFITSMVRALDEAMNKLQRANPDDPAYDENKRQFQEDIKVMNDLVDKIIADRKASGEQSDDLLTHMLNGKDPETGEPLDDENIRYQIITFLIAGHETTSGLLSFALYFLVKNPHVLQKAAEEAARVLVDPVPSYKQVKQLKYVGMVLNEALRLWPTAPAFSLYAKEDTVLGGEYPLEKGDELMVLIPQLHRDKTIWGDDVEEFRPERFENPSAIPQHAFKPFGNGQRACIGQQFALHEATLVLGMMLKHFDFEDHTNYELDIKETLTLKPEGFVVKAKSKKIPLGGIPSPSTEQSAKKVRKKAENAHNTPLLVLYGSNMGTAEGTARDLADIAMSKGFAPQVATLDSHAGNLPREGAVLIVTASYNGHPPDNAKQFVDWLDQASADEVKGVRYSVFGCGDKNWATTYQKVPAFIDETLAAKGAENIADRGEADASDDFEGTYEEWREHMWSDVAAYFNLDIENSEDNKSTLSLQFVDSAADMPLAKMHGAFSTNVVASKELQQPGSARSTRHLEIELPKEASYQEGDHLGVIPRNYEGIVNRVTARFGLDASQQIRLEAEEEKLAHLPLAKTVSVEELLQYVELQDPVTRTQLRAMAAKTVCPPHKVELEALLEKQAYKEQVLAKRLTMLELLEKYPACEMKFSEFIALLPSIRPRYYSISSSPRVDEKQASITVSVVSGEAWSGYGEYKGIASNYLAELQEGDTITCFISTPQSEFTLPKDPETPLIMVGPGTGVAPFRGFVQARKQLKEQGQSLGEAHLYFGCRSPHEDYLYQEELENAQSEGIITLHTAFSRMPNQPKTYVQHVMEQDGKKLIELLDQGAHFYICGDGSQMAPAVEATLMKSYADVHQVSEADARLWLQQLEEKGRYAKDVWAG
modifications: cytochrome P450NADPH-P-450 reductase precursor, cytochrome P450 (BM3), CYP102A1
B5: WT A328V: P450BM3 variant: A328V (protein, listed as Bacillus megaterium)
chain: B4 chain with A87F, A328V
modifications: cytochrome P450NADPH-P-450 reductase precursor, cytochrome P450 (BM3), CYP102A1
B6: WT T88L: P450BM3 variant: T88L (protein, listed as Bacillus megaterium)
chain: B4 chain with A87F, T88L
modifications: cytochrome P450NADPH-P-450 reductase precursor, cytochrome P450 (BM3), CYP102A1

Columns and labels:
[1] = P450BM3 compilation plate screen (GC, cyclopropane peaks); assay type: biochemical; conditions: for ee (cis): (R,S)-(S,R); for Absolute activity: sum of the area of the cyclopropane peaks over the area of the internal standard
[2] = Small-scale anaerobic C—H amination with purified enzymes, azide 1; assay type: biochemical; conditions: benzosultam 3
Experimental: Activities are presented in TTN. […] Yields and enantioselectivies determined by HPLC analysis. * (S−R)/(S+R). nd=not determined.
Enzymes used as purified catalysts were expressed as previously described (Lewis, J. C. et al., Proc. Natl. Acad. Sci. U.S.A. 106, 16550-16555 (2009)), and were purified by anion-exchange chromatography (for holoenzymes) or Ni-NTA chromatography (for isolated heme domains). Concentrations of P450 or P411 enzymes were determined as previously reported (Omura, T. & Sato, R., J. Biol. Chem. 239, 2370-2378 (1964); Vatsis, K. P. et al., J. Inorg. Biochem. 91, 542-553 (2002)). Small-scale reactions (400 μL) were conducted in 2 mL crimp vials containing degassed buffer (0.1 M potassium phosphate pH 8.0), enzyme (0.1-0.5% catalyst loading) and oxygen depletion system (10× stock solution containing 14,000 U/mL catalase, 1,000 U/mL glucose oxidase dissolved in 0.1 M KPi pH 8.0). Enzyme (P450 or P411) solution and oxygen depletion mixture were added to the vial with a small stir bar before crimp-sealing. […] Reactions were stirred at room temperature for 24 h under positive argon pressure.
Small-scale reactions (400 μL) were conducted in 2 mL crimp vials (Agilent Technologies, San Diego, Calif.) containing buffer (0.1 M potassium phosphate pH 8.0), enzyme (0.1-0.5% catalyst loading) and oxygen depletion system (10× stock solution containing 14,000 U/mL catalase, 1,000 U/mL glucose oxidase dissolved in 0.1 M KPi pH 8.0). Enzyme (P450 or P411) solution and oxygen depletion mixture were added to the vial with a small stir bar before crimp-sealing. […] In the meantime, the headspace of the sealed 2 mL reaction vial with the P450 solution was made anaerobic by flushing argon over the protein solution (with no bubbling). The buffer/reductant/glucose solution (270 μL) was syringed into the reaction vial with continuous argon purge of the vial headspace. An arylsulfonyl azide solution in DMSO (10 μL, 80 mM) was added to the reaction vial via a glass syringe, and the reaction was left stirring for 24 h at room temperature under positive argon pressure. […] Reactions were quenched by adding 30 μL 3 M HCl under argon. To the vials were then added acetonitrile (430 uL) and internal standard (o-toluenesulfonamide 10 mM in 50% acetonitrile 50% water, 1 mM final concentration). This mixture was then transferred to a microcentrifuge tube, and centrifuged at 17,000×g for 10 minutes. A portion (20 μL) of the supernatant was then analyzed by HPLC. For LC-MS analysis, the quenched reaction mixture was extracted twice with ethyl acetate (2×350 μL), dried under a light argon stream and resuspended in 50% water-acetonitrile (100 μL). For chiral HPLC the reactions were extracted as above with ethyl acetate, dried and resuspended in DMSO (100 μL) and then C18 purified as described above. The C18 purified material was dried, and resuspended in acetonitrile, and then injected onto the chiral HPLC system for analysis. Sultam formation was quantified comparison of integrated peak areas of internal standard and sultam at 220 nm to a calibration curve made using synthetically produced sultam and internal standard.
Purified enzymes were screened for activity in small scale reactions (400 μL) under anaerobic conditions as described above. Reactions were carried out using 0.5% mol of enzyme (10 μM) with respect to the triethylsulfonyl azide substrate 1 (2 mM). Standard reaction conditions described above were employed. Diethyl benzosultam product 3 (FIG. 18) was analyzed and quantified by reversed-phase HPLC (see above).
Small-scale reactions (400 μL total volume) were set up and worked up. Control reactions were performed with both the holoenzyme (BM3 with covalently linked reductase domain) and the isolated heme domain. […] Reactions of the complete system with heme domain (CS heme) included 2 mM Na2S2O4 rather than NADPH unless otherwise indicated in the table. […]

[3] = chiral β-CDX GC, P450BM3 variants
[4] = diastereomeric excess = ([cis] − [trans])/([cis] + [trans]), P450BM3 variants

Molecule | ee (cis) [1, 3] | de [1, 4] | Absolute activity ([1]; P450BM3 variants) | TTN ([2]; 0.1 mol % catalyst loading (2 μM), 2 mM azide 1, 2 mM NADPH) | % ee ([2]; 0.1 mol % catalyst loading, (S−R)/(S+R)) | ee (cis) ([1]; chimeric P450s) | de ([1]; ([cis] − [trans])/([cis] + [trans]), chimeric P450s) | Absolute activity ([1]; chimeric P450s)
B1 | −54 | −75 | 0.00192 | – | – | – | – | –
B2 | – | – | – | 82 | 47% | – | – | –
B3 | 5 | −60 | 0.001546 | – | – | – | – | –
B4 | 57 | −28 | 0.001704 | – | – | 56 | −28 | 0.001704
B5 | – | −100 | 0.00083 | – | – | – | – | –
B6 | 23 | −78 | 0.004522 | – | – | – | – | –
